The values below come from patent US8993229.

The target in test [1] is porcine gastric mucin coupled to magnetic beads (mucin from porcine stomach, type III, Sigma) (porcine). Put plainly: PGM-MB pull-down, qRT-PCR; untreated virus (0 seconds) in the thermal series. For orientation: Quantitative PCR measures a nucleic acid by following its amplification.
For test [2] the target is unchanged. Put plainly: PGM-MB pull-down, qRT-PCR; 0 J/cm^2; printed as 'bound' but the context (84% bound) shows it is the unbound fraction.
Test [3] shares this target. Put plainly: PGM-MB pull-down, qRT-PCR; 0 J/cm^2 in the UV series.
Test [4] shares this target. Put plainly: PGM-MB pull-down, qRT-PCR; untreated virus in the 300-600 MPa series.
The target is the same in test [5]. Put plainly: PGM-MB pull-down, qRT-PCR; untreated control in the initial pressure trials.
Test [6] has the same target. Put plainly: PGM-MB pull-down, qRT-PCR; after 0.5 J/cm^2 UV.
Test [7] shares this target. Put plainly: PGM-MB pull-down, qRT-PCR; after 0.25 J/cm^2 UV.
Test [8] has the same target. Put plainly: PGM-MB pull-down, qRT-PCR; after 1 J/cm^2 UV.
For test [9] the target is unchanged. Put plainly: PGM-MB pull-down, qRT-PCR; after 600 MPa, 5 minutes, 5 C.
The target is the same in test [10]. Put plainly: PGM-MB pull-down, qRT-PCR of the bound fraction; after 500 and 600 MPa, 5 minutes, 5 C.
Test [11] shares this target. Put plainly: PGM-MB pull-down, qRT-PCR; after about 60 seconds in the heat block, about 64 C.

As for “GI.1 Norwalk strain norovirus (untreated virions from stool stock, patient No. 505A-05) (from UniProt Q83884 1-530)”, the percent bound turned out to be 68% in test [1], 84% in [3], 82% in test [4] and 71% in [5]. Further, the percent unbound in test [1] is 32%; in test [2] it was 16%.
Regarding “GI.1 norovirus after UV treatment (254 nm, up to 2 J/cm^2) (from UniProt Q83884 1-530)”, the percent bound in test [6] was determined as 33%; in test [8], 4%. Further, the percent unbound in [6] was 67%; in [7] it was 40%.
As to “GI.1 norovirus after high pressure treatment (300-600 MPa, 5 minutes, 5 C) (from UniProt Q83884 1-530)”, the percent bound in [9] was determined as 0.3%. Also, the log10 reduction of qRT-PCR detectable norovirus RNA after binding to PGM-MBs in [10] was more than 4.7.
For “GI.1 norovirus after thermal treatment (80 C heat block, 0-600 seconds) (from UniProt Q83884 1-530)”, the percent bound in test [11] turned out to be 6%.
Regarding “GII.4 norovirus (untreated virions, stock provided by the CDC)”, in [5], the percent bound turned out to be 69%.
With “GII.4 norovirus after high pressure treatment (600 MPa, 5 minutes, 5 C)”, in [9], the percent bound is 4%.
